# Patent publication US20200317768A1 (published 2020)
# Changes are numbered by the printed parent chain. Names and notes keep the numbering of the source.
# B1: MS103240H795-TT11/M103202L1045-SK1 (antibody, human IgG1, kappa)
# heavy: QVQLVESGGGLVQPGGSLRLSCAVSGIDLSHDDISWVRQAPGKGLEWVSIISYAGSTYYASWAKGRLTISKDTSKNQVVLTMTNMDPVDTATYYCARGVPAYSHGGDLWGQGTLVTVSSASTKGPSVFPLAPSSKSTSGGTAALGCLVKDYFPEPVTVSWNSGALTSGVHTFPAVLQSSGLYSLSSVVTVPSSSLGTQTYICNVNHKPSNTKVDKKVEPKSCDKTHTCPPCPAPEYLGGDSVFLFPPKPKDVLMISRTPEVTCVVVDVSHEDPEVKFNWYVDGVEVHNAKTKPREEQYNSTYRVVSVLPVLHQDWLNGKEYKCKVSNKALPKPIEKTISKAKGQPREPQVYTLPPSREEMTKNQVSLTCLVKGFYPSDIAVEWESNGQPENNYKTTPPVLDSDGSFFLYSKLTVDKSRWQQGNVFSCSVMHEALHNHYTQKSLSLSP
# light: DIVMTQSPATLSLSPGERATLSCTTSQSVYHENWLSWFQQKPGQPPKLLIYWASTLAYGVPSRFSGSGSGTDFTLTISSLQPEDAATYYCAGGYGGGRYAFGQGTKVEIKRTVAAPSVFIFPPSDEQLKSGTASVVCLLNNFYPREAKVQWKVDNALQSGNSQESVTEQDSKDSTYSLSSTLTLSKADYEKHKVYACEVTHQGLSSPVTKSFNRGEC
# notes: CH = SG1 with L234Y/P238D/T250V/T307P/A330K (EU numbering)
# B2: MS103240H795-TT13/M103202L1045-SK1 (antibody, human IgG1, kappa)
# heavy: B1 heavy with Y236L, V266I, S269A
# light: B1 light
# notes: CH = SG1 with P238D/T250V/V264I/S267A/T307P/A330K (EU numbering)
# B3: MS103240H795-TT20/M103202L1045-SK1 (antibody, human IgG1, kappa)
# heavy: B1 heavy with Y236L, Q313R, P345R
# light: B1 light
# notes: CH = SG1 with P238D/T250V/T307P/Q311R/A330K/P343R (EU numbering)
# B4: MS103240H795-TT25/M103202L1045-SK1 (antibody, human IgG1, kappa)
# heavy: B1 heavy with Y236L, S269A, Q313R, D415K
# light: B1 light
# notes: CH = SG1 with P238D/T250V/S267A/T307P/Q311R/A330K/D413K (EU numbering)
# B5: MS103240H795-TT14/M103202L1045-SK1 (antibody, human IgG1, kappa)
# heavy: B1 heavy with V266I
# light: B1 light
# notes: CH = SG1 with L234Y/P238D/T250V/V264I/T307P/A330K (EU numbering)
# B6: MS103240H795-TT23/M103202L1045-SK1 (antibody, human IgG1, kappa)
# heavy: B1 heavy with Y236L, V266I, Q313R, D415K
# light: B1 light
# notes: CH = SG1 with P238D/T250V/V264I/T307P/Q311R/A330K/D413K (EU numbering)
# B7: MS103240H795-TT22/M103202L1045-SK1 (antibody, human IgG1, kappa)
# heavy: B1 heavy with Y236L, V266I, Q313R, P345R
# light: B1 light
# notes: CH = SG1 with P238D/T250V/V264I/T307P/Q311R/A330K/P343R (EU numbering)
# B8: MS103240H795-TT24/M103202L1045-SK1 (antibody, human IgG1, kappa)
# heavy: B1 heavy with Y236L, S269A, Q313R, P345R
# light: B1 light
# notes: CH = SG1 with P238D/T250V/S267A/T307P/Q311R/A330K/P343R (EU numbering)
# B9: MS103240H795-TT26/M103202L1045-SK1 (antibody, human IgG1, kappa)
# heavy: B1 heavy with Q313R, P345R
# light: B1 light
# notes: CH = SG1 with L234Y/P238D/T250V/T307P/Q311R/A330K/P343R (EU numbering)
# B10: MS103240H795-TT15/M103202L1045-SK1 (antibody, human IgG1, kappa)
# heavy: B1 heavy with V266I, S269A
# light: B1 light
# notes: CH = SG1 with L234Y/P238D/T250V/V264I/S267A/T307P/A330K (EU numbering)
# B11: MS103240H795-TT21/M103202L1045-SK1 (antibody, human IgG1, kappa)
# heavy: B1 heavy with Y236L, Q313R, D415K
# light: B1 light
# notes: CH = SG1 with P238D/T250V/T307P/Q311R/A330K/D413K (EU numbering)
# B12: MS103240H795-TT12/M103202L1045-SK1 (antibody, human IgG1, kappa)
# heavy: B1 heavy with S269A
# light: B1 light
# notes: CH = SG1 with L234Y/P238D/T250V/S267A/T307P/A330K (EU numbering)
# Biological target: T1, human FcγRIIaH extracellular domain, C-terminal His-tag (human, UniProt P12318 34-217)
# T1 construct: also called human FcγRIIa (type H); FcgRIIaH; not shown: His-tag added to the C-terminus
# T1 sequence: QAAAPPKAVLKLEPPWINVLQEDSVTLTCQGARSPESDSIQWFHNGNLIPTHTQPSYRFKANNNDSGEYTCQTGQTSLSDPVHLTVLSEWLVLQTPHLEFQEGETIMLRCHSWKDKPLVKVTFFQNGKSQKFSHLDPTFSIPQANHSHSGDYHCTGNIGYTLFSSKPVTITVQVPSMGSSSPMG
# Experiment: SPR; KD of SG1 divided by KD of variant;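 also: relative to parent M103205H795-SG1 carrying the SG1 human heavy chain constant region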
# Method: (§1) The kinetic analysis of interactions between these antibodies and FcγR was carried out using BIACORE® T200 or BIACORE® 4000 (GE Healthcare). HBS-EP+ (GE Healthcare) was used as the running buffer, and the measurement temperature was set to 25° C. A chip produced by immobilizing Protein A. Protein A/G or mouse anti-human IgG kappa light chain (BD Biosciences) onto a Series S Sensor Chip CM4 or CM5 (GE Healthcare) by the amine-coupling method was used. […] After the measurement, the antibody captured on the chip was washed off by allowing reaction with 10 mM glycine-HCl, pH1.5 and 25 mM NaOH so that the chip was regenerated and used repeatedly. The sensorgrams obtained as measurement results were analyzed by the 1:1 Langmuir binding model using the BIACORE® Evaluation Software to calculate the binding rate constant ka (L/mol/s) and dissociation rate constant kd (l/s), and the dissociation constant KD (mol/L) was calculated from these values. […] Regarding such interactions, KD values were calculated using the following 1:1 binding model described in BIACORE® T100 Software Handbook BR1006-48 Edition AE.
# (§2) Human FcγRIIb-enhanced Fc variants with anti-myostatin variable region were constructed and their affinity for human FcγRs was evaluated. […] In addition, substitutions (Q311R/D413K or […]) were also introduced. The variants were expressed using M103202L1045-SK1 as light chain and their affinity to human FcγRs was analyzed according to the method shown in Example 34.
row,Binder,KD fold (SG1 = 1)
1,B1,0.031 fold
2,B2,0.017 fold
3,B3,0.008 fold
4,B4,0.034 fold
5,B5,0.042 fold
6,B6,0.007 fold
7,B7,0.013 fold
8,B8,0.015 fold
9,B9,0.011 fold
10,B10,0.026 fold
11,B11,0.013 fold
12,B12,0.038 fold

# Biological target: T2, human FcγRIIaR extracellular domain, C-terminal His-tag (human, UniProt P12318 34-217)
# T2 construct: also called human FcγRIIa (type R); FcgRIIaR; not shown: His-tag added to the C-terminus
# T2 chain: T1 sequence with H134R
# Experiment: SPR; KD of SG1 divided by KD of variant;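 also: relative to parent M103205H795-SG1 carrying the SG1 human heavy chain constant region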
# Method: as §1, §2
row,Binder,KD fold (SG1 = 1)
1,B1,0.11 fold
2,B2,0.11 fold
3,B3,0.04 fold
4,B4,0.08 fold
5,B5,0.14 fold
6,B6,0.02 fold
7,B7,0.05 fold
8,B8,0.08 fold
9,B9,0.05 fold
10,B10,0.18 fold
11,B11,0.06 fold
12,B12,0.22 fold

# Biological target: T3, human FcγRIIb extracellular domain, C-terminal His-tag (human, UniProt P31994 43-217)
# T3 construct: also called FcgRIIb; not shown: His-tag added to the C-terminus
# T3 sequence: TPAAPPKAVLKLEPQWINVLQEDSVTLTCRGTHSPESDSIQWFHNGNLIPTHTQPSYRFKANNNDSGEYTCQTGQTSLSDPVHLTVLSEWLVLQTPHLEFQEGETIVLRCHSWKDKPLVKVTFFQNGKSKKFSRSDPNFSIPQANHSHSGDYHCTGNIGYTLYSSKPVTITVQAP
# Experiment: SPR; KD of SG1 divided by KD of variant;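 also: relative to parent M103205H795-SG1 carrying the SG1 human heavy chain constant region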
# Method: as §1, §2
row,Binder,KD fold (SG1 = 1)
1,B1,11.2 fold
2,B2,18.1 fold
3,B3,4.1 fold
4,B4,5.8 fold
5,B5,30.5 fold
6,B6,10.5 fold
7,B7,9.8 fold
8,B8,4.8 fold
9,B9,5.3 fold
10,B10,23.2 fold
11,B11,4.5 fold
12,B12,11.8 fold

# Biological target: T4, human FcγRIIIaV extracellular domain, C-terminal His-tag (human, UniProt P08637 17-208)
# T4 construct: also called FcgRIIIaV; not shown: His-tag added to the C-terminus
# T4 sequence (P08637 17-208 F176V): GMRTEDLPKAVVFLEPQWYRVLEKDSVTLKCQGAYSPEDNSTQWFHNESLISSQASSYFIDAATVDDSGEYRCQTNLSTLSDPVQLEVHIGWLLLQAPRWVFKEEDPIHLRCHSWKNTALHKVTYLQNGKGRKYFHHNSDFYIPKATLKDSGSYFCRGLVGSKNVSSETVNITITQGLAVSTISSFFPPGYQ
# Experiment: SPR; KD of SG1 divided by KD of variant;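 also: relative to parent M103205H795-SG1 carrying the SG1 human heavy chain constant region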
# Method: as §1, §2
row,Binder,KD fold (SG1 = 1)
1,B1,0.005 fold
2,B2,0.006 fold
3,B3,0.01 fold
4,B4,0.006 fold
5,B5,0.005 fold
6,B6,0.002 fold
7,B7,0.011 fold
8,B8,0.003 fold
9,B9,0.004 fold
10,B10,0.006 fold
11,B11,0.01 fold
12,B12,0.006 fold

# Biological target: T1, human FcγRIIaH extracellular domain, …
# Experiment: SPR (BIACORE), antibody captured, soluble FcgR as analyte, 25C
# Method: as §1, §2
row,Binder,Kd
1,B1,24 µM
2,B2,45 µM
3,B3,91 µM
4,B4,22 µM
5,B5,18 µM
6,B6,100 µM
7,B7,60 µM
8,B8,49 µM
9,B9,69 µM
10,B10,29 µM
11,B11,56 µM
12,B12,20 µM

# Biological target: T2, human FcγRIIaR extracellular domain, …
# Experiment: as above
# Method: as §1, §2
row,Binder,Kd
1,B1,10 µM
2,B2,9.8 µM
3,B3,28 µM
4,B4,13 µM
5,B5,7.6 µM
6,B6,48 µM
7,B7,21 µM
8,B8,13 µM
9,B9,21 µM
10,B10,6.1 µM
11,B11,20 µM
12,B12,5 µM

# Biological target: T3, human FcγRIIb extracellular domain, …
# Experiment: as above
# Method: as §1, §2
row,Binder,Kd
1,B1,0.52 µM
2,B2,0.32 µM
3,B3,1.4 µM
4,B4,1 µM
5,B5,0.19 µM
6,B6,0.55 µM
7,B7,0.59 µM
8,B8,1.2 µM
9,B9,1.1 µM
10,B10,0.25 µM
11,B11,1.3 µM
12,B12,0.49 µM

# Biological target: T4, human FcγRIIIaV extracellular domain, …
# Experiment: as above
# Method: as §1, §2
row,Binder,Kd
1,B1,170 µM
2,B2,140 µM
3,B3,84 µM
4,B4,140 µM
5,B5,150 µM
6,B6,450 µM
7,B7,72 µM
8,B8,260 µM
9,B9,200 µM
10,B10,130 µM
11,B11,85 µM
12,B12,130 µM
